From article PMC3858555 come the findings set out here.

For this test, the target named is CIN85 of MDCK cells (dog (endogenous in MDCK)). The test can be described thus: co-IP; whole cell lysates (RIPA), 500 μg; precipitated with anti-CIN85 antibody, blotted with anti-MUC1 (3C6, Ab5) or anti-Tac; washed with RIPA containing 0.5 M NaCl, 2% SDS; control unrelated IgG; intensity by Image J.

With “full-length MUC1 containing 22 tandem repeats in the VNTR domain (natural protein)”, the fold co-precipitation against the construct lacking the cytoplasmic tail (22TR-Tac) worked out at 1.9 fold and the fold co-precipitation against the construct lacking the extracellular domain (Tac-CT) was 2.4 fold.
